We go through one molecule from US7732133B2, “Screening methods for biologically active ligands” (Chugai Seiyaku Kabushiki Kaisha, priority 2000, dated 2010).

The target in the assay is T1, chimeric CNTF receptor (human CNTF receptor expressed in chimeric LIF receptor cell line LIG) in Ba/F3 cell line CNG (Homo sapiens, UniProt P26992+P40189+P42702).
T1 construct: from the 1st to the 372nd amino acid residues; expressed in transfected cells; host or cells: Ba/F3-derived cell line LIG transfected with pCV-CNTFR, clone CNG#203 = CNG
T1 sequence (P26992 23-372, change not shown): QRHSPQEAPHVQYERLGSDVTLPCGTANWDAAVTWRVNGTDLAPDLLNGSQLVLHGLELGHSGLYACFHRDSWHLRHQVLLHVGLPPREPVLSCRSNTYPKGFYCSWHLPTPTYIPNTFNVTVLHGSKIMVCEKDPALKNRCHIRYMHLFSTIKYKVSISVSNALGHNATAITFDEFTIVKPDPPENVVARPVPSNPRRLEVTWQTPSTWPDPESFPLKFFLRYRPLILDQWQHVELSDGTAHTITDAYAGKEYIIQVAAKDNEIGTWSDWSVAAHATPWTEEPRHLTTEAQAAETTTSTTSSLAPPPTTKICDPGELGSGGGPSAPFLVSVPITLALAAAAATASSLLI
T1 sequence (P42702 45-833, change not shown): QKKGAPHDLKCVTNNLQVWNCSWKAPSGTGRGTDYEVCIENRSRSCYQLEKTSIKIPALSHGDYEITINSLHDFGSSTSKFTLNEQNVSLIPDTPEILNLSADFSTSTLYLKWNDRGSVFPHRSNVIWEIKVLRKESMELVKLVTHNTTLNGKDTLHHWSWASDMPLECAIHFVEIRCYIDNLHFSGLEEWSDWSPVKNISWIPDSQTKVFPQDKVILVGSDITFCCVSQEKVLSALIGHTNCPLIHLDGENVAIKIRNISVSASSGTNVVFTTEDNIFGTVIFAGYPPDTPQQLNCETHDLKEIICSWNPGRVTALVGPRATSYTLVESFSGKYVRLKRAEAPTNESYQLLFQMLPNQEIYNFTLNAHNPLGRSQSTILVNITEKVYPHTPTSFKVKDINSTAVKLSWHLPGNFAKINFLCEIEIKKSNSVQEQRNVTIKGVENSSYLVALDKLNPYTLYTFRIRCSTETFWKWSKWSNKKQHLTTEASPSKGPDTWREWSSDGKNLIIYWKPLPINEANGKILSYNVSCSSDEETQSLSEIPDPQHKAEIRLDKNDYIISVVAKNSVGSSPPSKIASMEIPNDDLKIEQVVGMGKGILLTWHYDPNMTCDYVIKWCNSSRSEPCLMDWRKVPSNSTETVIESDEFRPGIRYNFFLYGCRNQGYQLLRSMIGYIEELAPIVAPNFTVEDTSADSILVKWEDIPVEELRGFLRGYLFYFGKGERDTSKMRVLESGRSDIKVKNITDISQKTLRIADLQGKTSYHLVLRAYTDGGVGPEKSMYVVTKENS
T1 sequence (P40189 23-619, change not shown): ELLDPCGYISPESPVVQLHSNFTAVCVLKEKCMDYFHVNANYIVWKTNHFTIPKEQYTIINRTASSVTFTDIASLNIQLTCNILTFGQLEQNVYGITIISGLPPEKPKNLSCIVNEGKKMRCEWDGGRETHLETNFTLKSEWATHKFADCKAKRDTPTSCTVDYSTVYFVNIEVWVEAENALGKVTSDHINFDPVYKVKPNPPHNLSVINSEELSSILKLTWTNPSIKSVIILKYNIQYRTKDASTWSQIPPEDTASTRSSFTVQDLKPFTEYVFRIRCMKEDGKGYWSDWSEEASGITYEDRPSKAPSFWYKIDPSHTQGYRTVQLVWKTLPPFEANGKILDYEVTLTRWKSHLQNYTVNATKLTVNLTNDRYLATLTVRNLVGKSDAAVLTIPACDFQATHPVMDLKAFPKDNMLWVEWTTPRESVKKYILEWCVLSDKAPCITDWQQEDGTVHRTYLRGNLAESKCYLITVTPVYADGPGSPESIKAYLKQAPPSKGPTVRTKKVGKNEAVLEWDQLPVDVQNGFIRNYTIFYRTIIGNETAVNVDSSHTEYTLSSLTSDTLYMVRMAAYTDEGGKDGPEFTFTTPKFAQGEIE
T1 sequence (P40223 627-837 partner limits assumed): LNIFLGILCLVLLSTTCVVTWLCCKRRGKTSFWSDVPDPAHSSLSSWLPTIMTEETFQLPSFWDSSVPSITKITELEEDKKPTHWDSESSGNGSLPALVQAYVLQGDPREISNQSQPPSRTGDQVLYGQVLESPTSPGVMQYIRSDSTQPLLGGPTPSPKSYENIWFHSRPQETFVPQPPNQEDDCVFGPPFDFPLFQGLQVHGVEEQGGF
The assay can be described thus: Growth response of chimeric CNTF receptor-expressing Ba/F3 cell line CNG (WST-8). In kind it is cell-based. Particulars: 72 hours culture, WST-8 absorbance. An excerpt:
Human CNTF receptor (from the 1st to the 372nd amino acid residues; Davis, S. et al. (1991) Science, 253, 59-63) cDNA was cloned downstream of the HEF1α promoter of a mammalian expression vector, pCV, to construct human CNTF receptor (CNTFR) expression vector, pCV-CNTFR. pCV-CNTFR was linearized with Pvu I (Takara Shuzo), extracted with phenol and chloroform, and purified by ethanol precipitation.
The linearized expression gene vector was introduced into the chimeric LIF receptor-expressing cell line LIG (see section 1-13) using an electroporation apparatus (Gene Pulser: Bio Rad). The LIG cells were washed twice with Dulbecco's PBS (hereinafter referred to as PBS), and then were suspended in PBS to give a cell density of about 1×10^7 cells/mL. […]
The cells were washed twice with Media A, and were suspended in Media A to give a cell density of 5×10^4 cells/mL. […] After the culture, 10 μL/well WST-8 reagent (Cell Count Reagent SF; Nacalai Tesque) was added, and pre-reaction absorbance at a measurement wavelength of 450 nm and a control wavelength of 655 nm was measured using microplate reader (Model 3550, Bio Rad). The plate was incubated for two hours in a CO2 incubator (CO2 concentration, 5%), and post-reaction absorbance was measured as above. […]

Where only a bound is given, the exact number is not on record here.

B1: human CNTF: human ciliary neurotrophic factor (Genzyme) (protein, UniProt P26441 1-200, looked up)
Ciliary neurotrophic factor: MAFTEHSPLTPHRRDLCSRSIWLARKIRSDLTALTESYVKHQGLNKNINLDSADGMPVASTDQWSELTEAERLQENLQAYRTFHVLLARLLEDQQVHFTPTEGDFHQAIHTLLLQVAAFAYQIEELMILLEYKIPRNEADGMPINVGDGGLFEKKLWGLKVLQELSQWTVRSIHDLRFISSHQTGIPARGSHYIANNKKM
As for B1, the “concentration at which an evident growth reaction was observed” value is on record as at least 0.3 ng/mL.
